Source: patent US20230110958A1 (Regeneron, published 2023)

Key:
[1] = molecular target: T1, murine IL27 receptor (IL27Ra and gp130) on mouse cells (MC9/STAT3-Luc reporter cells; splenic CD4+ T cells) (mouse, UniProt O70394 25-623; Q00560 23-917); test: cell-based or functional assay
T1 sequence (looked up) 1: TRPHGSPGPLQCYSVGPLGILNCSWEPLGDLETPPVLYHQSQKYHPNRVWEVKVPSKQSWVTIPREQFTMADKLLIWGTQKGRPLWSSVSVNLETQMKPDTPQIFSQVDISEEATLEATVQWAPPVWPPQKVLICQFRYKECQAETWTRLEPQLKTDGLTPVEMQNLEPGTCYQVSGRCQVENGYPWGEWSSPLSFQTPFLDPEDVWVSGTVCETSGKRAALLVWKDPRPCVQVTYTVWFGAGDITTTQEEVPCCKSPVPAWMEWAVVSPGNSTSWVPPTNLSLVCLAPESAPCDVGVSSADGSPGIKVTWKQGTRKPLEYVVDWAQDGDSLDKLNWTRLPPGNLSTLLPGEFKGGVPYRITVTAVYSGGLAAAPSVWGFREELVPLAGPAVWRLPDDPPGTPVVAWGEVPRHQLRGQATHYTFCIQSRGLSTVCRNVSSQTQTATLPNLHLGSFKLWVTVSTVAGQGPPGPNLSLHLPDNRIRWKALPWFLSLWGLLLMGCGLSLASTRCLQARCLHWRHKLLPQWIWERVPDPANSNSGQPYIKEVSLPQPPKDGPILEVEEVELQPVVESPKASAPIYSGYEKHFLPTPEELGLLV
T1 sequence (looked up) 2: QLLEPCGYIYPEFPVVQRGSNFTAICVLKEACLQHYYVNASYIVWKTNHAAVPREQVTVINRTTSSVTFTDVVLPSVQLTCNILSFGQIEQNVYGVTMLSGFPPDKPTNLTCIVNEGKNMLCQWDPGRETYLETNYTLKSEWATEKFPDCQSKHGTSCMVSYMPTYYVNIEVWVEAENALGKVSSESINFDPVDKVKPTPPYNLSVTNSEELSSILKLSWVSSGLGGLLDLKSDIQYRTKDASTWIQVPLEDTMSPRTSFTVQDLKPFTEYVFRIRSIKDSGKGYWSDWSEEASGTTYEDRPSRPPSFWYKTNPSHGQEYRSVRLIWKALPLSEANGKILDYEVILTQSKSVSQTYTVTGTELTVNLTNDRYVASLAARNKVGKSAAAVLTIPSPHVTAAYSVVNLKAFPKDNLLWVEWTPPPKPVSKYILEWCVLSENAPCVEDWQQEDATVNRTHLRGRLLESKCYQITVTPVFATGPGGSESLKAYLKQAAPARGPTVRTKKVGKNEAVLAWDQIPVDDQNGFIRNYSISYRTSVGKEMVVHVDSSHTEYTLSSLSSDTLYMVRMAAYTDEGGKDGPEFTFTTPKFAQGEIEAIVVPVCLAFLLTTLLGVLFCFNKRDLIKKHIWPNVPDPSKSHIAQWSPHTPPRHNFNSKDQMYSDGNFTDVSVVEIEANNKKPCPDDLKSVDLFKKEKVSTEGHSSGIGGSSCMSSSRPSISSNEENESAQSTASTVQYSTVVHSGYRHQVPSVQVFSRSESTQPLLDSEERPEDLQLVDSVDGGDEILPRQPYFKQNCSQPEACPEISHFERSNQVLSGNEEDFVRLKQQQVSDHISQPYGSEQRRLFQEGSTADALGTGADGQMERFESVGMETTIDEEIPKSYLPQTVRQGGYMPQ

[2] = molecular target: T1, murine IL27 receptor (IL27Ra and gp130) …; test: cell-based or functional assay; remark: listed apart in the source

B1: IL27M16, monovalent Fc x EBI3-p28 (Fc fusion)
chain 1: ESKYGPPCPPCPAPPVAGPSVFLFPPKPKDTLMISRTPEVTCVVVDVSQEDPEVQFNWYVDGVEVHNAKTKPREEQFNSTYRVVSVLTVLHQDWLNGKEYKCKVSNKGLPSSIEKTISKAKGQPREPQVYTLPPSQEEMTKNQVSLWCLVKGFYPSDIAVEWESNGQPENNYKTTPPVLDSDGSFFLYSRLTVDKSRWQEGNVFSCSVMHEALHNHYTQKSLSLSLGKGGGGSGGGGSGGGGSYTETALVALSQPRVQCHASRYPVAVDCSWTPLQAPNSTRSTSFIATYRLGVATQQQSQPCLQRSPQASRCTIPDVHLFSTVPYMLNVTAVHPGGASSSLLAFVAERIIKPDPPEGVRLRTAGQRLQVLWHPPASWPFPDIFSLKYRLRYRRRGASHFRQVGPIEATTFTLRNSKPHAKYCIQVSAQDLTDYGKPSDWSLPGQVESAPHKPGGGGSGGGGSGGGGSGGGGSFPTDPLSLQELRREFTVSLYLARKLLSEVQGYVHSFAESRLPGVNLDLLPLGYHLPNVSLTFQAWHHLSDSERLCFLATTLRPFPAMLGGLGTQGTWTSSEREQLWAMRLDLRDLHRHLRFQVLAAGFKCSKEEEDKEEEEEEEEEEKKLPLGALGGPNQVSSQVSWPQLLYTYQLLHSLELVLSRAVRDLLLLSLPRRPGSAWDS
chain 2: ESKYGPPCPPCPAPPVAGPSVFLFPPKPKDTLMISRTPEVTCVVVDVSQEDPEVQFNWYVDGVEVHNAKTKPREEQFNSTYRVVSVLTVLHQDWLNGKEYKCKVSNKGLPSSIEKTISKAKGQPREPQVYTLPPSQEEMTKNQVSLSCAVKGFYPSDIAVEWESNGQPENNYKTTPPVLDSDGSFFLVSRLTVDKSRWQEGNVFSCSVMHEALHNRFTQKSLSLSPGK
With B1 the “EC50 (M), STAT3 luciferase, MC9/STAT3-Luc cells” value (from here on “EC50 (M) … MC9/STAT3-Luc cells”) [1] was 1.16e-11 M, the “FOLD INDUCTION, STAT3 luciferase, MC9/STAT3-Luc cells” value (“FOLD INDUCTION … MC9/STAT3-Luc cells” for short) [1] was 5.62 fold and the “EC50 (M), STAT3 luciferase, MC9 cells” value [2] was 1.18e-11 M. For the same binder, the “FOLD INDUCTION, STAT3 luciferase, MC9 cells” value [2] was 2.76 fold.

B2: IL27M24, monovalent Fc x EB13-p28 (K52A) (Fc fusion)
chain 1: ESKYGPPCPPCPAPPVAGPSVFLFPPKPKDTLMISRTPEVTCVVVDVSQEDPEVQFNWYVDGVEVHNAKTKPREEQFNSTYRVVSVLTVLHQDWLNGKEYKCKVSNKGLPSSIEKTISKAKGQPREPQVYTLPPSQEEMTKNQVSLWCLVKGFYPSDIAVEWESNGQPENNYKTTPPVLDSDGSFFLYSRLTVDKSRWQEGNVFSCSVMHEALHNHYTQKSLSLSLGKGGGGSGGGGSGGGGSYTETALVALSQPRVQCHASRYPVAVDCSWTPLQAPNSTRSTSFIATYRLGVATQQQSQPCLQRSPQASRCTIPDVHLFSTVPYMLNVTAVHPGGASSSLLAFVAERIIKPDPPEGVRLRTAGQRLQVLWHPPASWPFPDIFSLKYRLRYRRRGASHFRQVGPIEATTFTLRNSKPHAKYCIQVSAQDLTDYGKPSDWSLPGQVESAPHKPGGGGSGGGGSGGGGSGGGGSFPTDPLSLQELRREFTVSLYLARALLSEVQGYVHSFAESRLPGVNLDLLPLGYHLPNVSLTFQAWHHLSDSERLCFLATTLRPFPAMLGGLGTQGTWTSSEREQLWAMRLDLRDLHRHLRFQVLAAGFKCSKEEEDKEEEEEEEEEEKKLPLGALGGPNQVSSQVSWPQLLYTYQLLHSLELVLSRAVRDLLLLSLPRRPGSAWDS
chain 2: ESKYGPPCPPCPAPPVAGPSVFLFPPKPKDTLMISRTPEVTCVVVDVSQEDPEVQFNWYVDGVEVHNAKTKPREEQFNSTYRVVSVLTVLHQDWLNGKEYKCKVSNKGLPSSIEKTISKAKGQPREPQVYTLPPSQEEMTKNQVSLSCAVKGFYPSDIAVEWESNGQPENNYKTTPPVLDSDGSFFLVSRLTVDKSRWQEGNVFSCSVMHEALHNRFTQKSLSLSPGK
In the case of B2, the “EC50 (M) … MC9/STAT3-Luc cells” value [1] is reported as 1.18e-11 M and the “FOLD INDUCTION … MC9/STAT3-Luc cells” value [1] is reported as 5.59 fold.

B3: IL27M27, monovalent Fc x EB13-p28 (W195A) (Fc fusion)
chain 1: ESKYGPPCPPCPAPPVAGPSVFLFPPKPKDTLMISRTPEVTCVVVDVSQEDPEVQFNWYVDGVEVHNAKTKPREEQFNSTYRVVSVLTVLHQDWLNGKEYKCKVSNKGLPSSIEKTISKAKGQPREPQVYTLPPSQEEMTKNQVSLWCLVKGFYPSDIAVEWESNGQPENNYKTTPPVLDSDGSFFLYSRLTVDKSRWQEGNVFSCSVMHEALHNHYTQKSLSLSLGKGGGGSGGGGSGGGGSYTETALVALSQPRVQCHASRYPVAVDCSWTPLQAPNSTRSTSFIATYRLGVATQQQSQPCLQRSPQASRCTIPDVHLFSTVPYMLNVTAVHPGGASSSLLAFVAERIIKPDPPEGVRLRTAGQRLQVLWHPPASWPFPDIFSLKYRLRYRRRGASHFRQVGPIEATTFTLRNSKPHAKYCIQVSAQDLTDYGKPSDWSLPGQVESAPHKPGGGGSGGGGSGGGGSGGGGSFPTDPLSLQELRREFTVSLYLARKLLSEVQGYVHSFAESRLPGVNLDLLPLGYHLPNVSLTFQAWHHLSDSERLCFLATTLRPFPAMLGGLGTQGTWTSSEREQLWAMRLDLRDLHRHLRFQVLAAGFKCSKEEEDKEEEEEEEEEEKKLPLGALGGPNQVSSQVSAPQLLYTYQLLHSLELVLSRAVRDLLLLSLPRRPGSAWDS
chain 2: ESKYGPPCPPCPAPPVAGPSVFLFPPKPKDTLMISRTPEVTCVVVDVSQEDPEVQFNWYVDGVEVHNAKTKPREEQFNSTYRVVSVLTVLHQDWLNGKEYKCKVSNKGLPSSIEKTISKAKGQPREPQVYTLPPSQEEMTKNQVSLSCAVKGFYPSDIAVEWESNGQPENNYKTTPPVLDSDGSFFLVSRLTVDKSRWQEGNVFSCSVMHEALHNRFTQKSLSLSPGK
In the case of B3, the “FOLD INDUCTION … MC9/STAT3-Luc cells” value [1] is reported as 1.2 fold.

B4: IL27M26, monovalent Fc x EB13-p28 (L198A, L199A) (Fc fusion)
chain 1: ESKYGPPCPPCPAPPVAGPSVFLFPPKPKDTLMISRTPEVTCVVVDVSQEDPEVQFNWYVDGVEVHNAKTKPREEQFNSTYRVVSVLTVLHQDWLNGKEYKCKVSNKGLPSSIEKTISKAKGQPREPQVYTLPPSQEEMTKNQVSLWCLVKGFYPSDIAVEWESNGQPENNYKTTPPVLDSDGSFFLYSRLTVDKSRWQEGNVFSCSVMHEALHNHYTQKSLSLSLGKGGGGSGGGGSGGGGSYTETALVALSQPRVQCHASRYPVAVDCSWTPLQAPNSTRSTSFIATYRLGVATQQQSQPCLQRSPQASRCTIPDVHLFSTVPYMLNVTAVHPGGASSSLLAFVAERIIKPDPPEGVRLRTAGQRLQVLWHPPASWPFPDIFSLKYRLRYRRRGASHFRQVGPIEATTFTLRNSKPHAKYCIQVSAQDLTDYGKPSDWSLPGQVESAPHKPGGGGSGGGGSGGGGSGGGGSFPTDPLSLQELRREFTVSLYLARKLLSEVQGYVHSFAESRLPGVNLDLLPLGYHLPNVSLTFQAWHHLSDSERLCFLATTLRPFPAMLGGLGTQGTWTSSEREQLWAMRLDLRDLHRHLRFQVLAAGFKCSKEEEDKEEEEEEEEEEKKLPLGALGGPNQVSSQVSWPQAAYTYQLLHSLELVLSRAVRDLLLLSLPRRPGSAWDS
chain 2: ESKYGPPCPPCPAPPVAGPSVFLFPPKPKDTLMISRTPEVTCVVVDVSQEDPEVQFNWYVDGVEVHNAKTKPREEQFNSTYRVVSVLTVLHQDWLNGKEYKCKVSNKGLPSSIEKTISKAKGQPREPQVYTLPPSQEEMTKNQVSLSCAVKGFYPSDIAVEWESNGQPENNYKTTPPVLDSDGSFFLVSRLTVDKSRWQEGNVFSCSVMHEALHNRFTQKSLSLSPGK
For B4, the “EC50 (M) … MC9/STAT3-Luc cells” value [1] was 3.85e-10 M and the “FOLD INDUCTION … MC9/STAT3-Luc cells” value [1] was 2.8 fold.

B5: IL27M25, monovalent Fc x EB13-p28 (L138A, R145A, H146A) (Fc fusion)
chain 1: ESKYGPPCPPCPAPPVAGPSVFLFPPKPKDTLMISRTPEVTCVVVDVSQEDPEVQFNWYVDGVEVHNAKTKPREEQFNSTYRVVSVLTVLHQDWLNGKEYKCKVSNKGLPSSIEKTISKAKGQPREPQVYTLPPSQEEMTKNQVSLWCLVKGFYPSDIAVEWESNGQPENNYKTTPPVLDSDGSFFLYSRLTVDKSRWQEGNVFSCSVMHEALHNHYTQKSLSLSLGKGGGGSGGGGSGGGGSYTETALVALSQPRVQCHASRYPVAVDCSWTPLQAPNSTRSTSFIATYRLGVATQQQSQPCLQRSPQASRCTIPDVHLFSTVPYMLNVTAVHPGGASSSLLAFVAERIIKPDPPEGVRLRTAGQRLQVLWHPPASWPFPDIFSLKYRLRYRRRGASHFRQVGPIEATTFTLRNSKPHAKYCIQVSAQDLTDYGKPSDWSLPGQVESAPHKPGGGGSGGGGSGGGGSGGGGSFPTDPLSLQELRREFTVSLYLARKLLSEVQGYVHSFAESRLPGVNLDLLPLGYHLPNVSLTFQAWHHLSDSERLCFLATTLRPFPAMLGGLGTQGTWTSSEREQLWAMRADLRDLHAALRFQVLAAGFKCSKEEEDKEEEEEEEEEEKKLPLGALGGPNQVSSQVSWPQLLYTYQLLHSLELVLSRAVRDLLLLSLPRRPGSAWDS
chain 2: ESKYGPPCPPCPAPPVAGPSVFLFPPKPKDTLMISRTPEVTCVVVDVSQEDPEVQFNWYVDGVEVHNAKTKPREEQFNSTYRVVSVLTVLHQDWLNGKEYKCKVSNKGLPSSIEKTISKAKGQPREPQVYTLPPSQEEMTKNQVSLSCAVKGFYPSDIAVEWESNGQPENNYKTTPPVLDSDGSFFLVSRLTVDKSRWQEGNVFSCSVMHEALHNRFTQKSLSLSPGK
In the case of B5, the “FOLD INDUCTION … MC9/STAT3-Luc cells” value [1] is reported as 4.35 fold.
